First the molecules themselves.
B1: ZBTB16 BTB domain (residues 1-130) (domain or fragment)
chain: MDLTKMGMIQLQNPSHPTGLLCKANQMRLAGTLCDVVIMVDSQEFHAHRTVLACTSKMFEILFHRNSQHYTLDFLSPKTFQQILEYAYTATLQAKAEDLDDLLYAAEILEIEYLEEQCLKMLETIQASDD

Consider 18 molecules from doi:10.1101/2024.06.03.596960 (bioRxiv, 2024).

What is called IC50 is the concentration that gives 50% inhibition. The low end stands for inhibition by little substance, the high end for a need for much substance.

For one assay, the target named is His10-TEV-BACH1^BTB (UniProt O14867). As to the kind of experiment: AlphaScreen or HTRF.
For “SKP1-FBXO22(R376P) (from UniProt P63208 2-163; Q8NEZ5 12-403) (complex)”, the IC50 is 1350 nM.

“SKP1-FBXO22(R367W) (cancer-associated, TCGA) (from UniProt P63208 2-163; Q8NEZ5 12-403) (complex)” registered an IC50 of 1480 nM. This IC50 and that of the molecule before are within 1.5-fold of each other.

Molecule “SKP1-FBXO22(R367L) (cancer-associated, TCGA) (from UniProt P63208 2-163; Q8NEZ5 12-403) (complex)” showed an IC50 of 1040 nM.

“SKP1-FBXO22(R376D) (from UniProt P63208 2-163; Q8NEZ5 12-403) (complex)” came in with an IC50 of 900 nM. “SKP1-FBXO22(Q307R) (cancer-associated, TCGA) (from UniProt P63208 2-163; Q8NEZ5 12-403) (complex)” showed an IC50 of 165 nM. In the case of “SKP1-FBXO22(Q307E) (cancer-associated, TCGA) (from UniProt P63208 2-163; Q8NEZ5 12-403) (complex)”, the IC50 was 575 nM.

The target of a further assay is biotinylated ^AviSKP1-FBXO22(12-403) (UniProt P63208). As to the kind of experiment: AlphaScreen or HTRF. (In Alpha technology, singlet oxygen from a donor bead excites a nearby acceptor bead.)
Sequence of biotinylated ^AviSKP1-FBXO22(12-403) (P63208 2-163, chain 1 of 2): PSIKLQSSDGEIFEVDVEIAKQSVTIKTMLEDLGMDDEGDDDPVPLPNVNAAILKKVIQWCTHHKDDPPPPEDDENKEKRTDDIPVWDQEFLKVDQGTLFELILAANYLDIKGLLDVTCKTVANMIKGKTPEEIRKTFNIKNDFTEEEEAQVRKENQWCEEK
Sequence of biotinylated ^AviSKP1-FBXO22(12-403) (Q8NEZ5 12-403, chain 2 of 2, further chain): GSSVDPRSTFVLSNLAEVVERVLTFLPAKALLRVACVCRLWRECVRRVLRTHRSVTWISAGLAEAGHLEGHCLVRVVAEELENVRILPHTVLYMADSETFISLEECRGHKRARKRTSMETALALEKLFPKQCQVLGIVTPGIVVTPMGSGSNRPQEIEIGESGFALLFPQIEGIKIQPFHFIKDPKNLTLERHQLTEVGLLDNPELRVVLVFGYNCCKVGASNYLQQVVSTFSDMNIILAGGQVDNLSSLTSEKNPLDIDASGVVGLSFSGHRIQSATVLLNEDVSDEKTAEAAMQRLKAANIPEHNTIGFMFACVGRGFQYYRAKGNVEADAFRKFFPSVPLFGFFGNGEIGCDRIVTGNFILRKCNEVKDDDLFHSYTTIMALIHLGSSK
In turn, “KEAP1 BTB domain (residues 48-180) (from UniProt Q14145 48-180) (domain or fragment)” gave an IC50 of 150 nM. In the case of “BACH1^BTB F9A (from UniProt O14867 7-128) (domain or fragment)”, the IC50 came out at 320 nM. Against the preceding molecule, the IC50 is about 2.1-fold higher.

“BACH1^BTB F125Y (from UniProt O14867 7-128) (domain or fragment)” yielded an IC50 of 656 nM. “BACH2 BTB domain (residues 8-131) (from UniProt Q9BYV9 8-131) (domain or fragment)” displayed an IC50 of 85 nM. This IC50 is about 7.7-fold lower than that of the molecule before.

In turn, “BACH1^BTB Y11A (from UniProt O14867 7-128) (domain or fragment)” showed an IC50 of 2660 nM. As to “BACH1^BTB S13D (from UniProt O14867 7-128) (domain or fragment)”, the IC50 was found to be 2460 nM. Regarding “BACH1^BTB Y11F (from UniProt O14867 7-128) (domain or fragment)”, the IC50 came out at 140 nM. Regarding “BACH1 BTB domain (residues 7-128), wild type, tag-free (from UniProt O14867 7-128) (domain or fragment)”, the IC50 was 64 nM. Turning to “BACH1^BTB F125A (from UniProt O14867 7-128) (domain or fragment)”, the IC50 stood at 7460 nM. Against the preceding molecule, the IC50 is about 120-fold higher. As to “BACH1^BTB S13A (from UniProt O14867 7-128) (domain or fragment)”, the IC50 was found to be 183 nM. Compared with the last molecule, the IC50 is about 41-fold lower. Same read-out and setting: for “BACH1^BTB E12R (from UniProt O14867 7-128) (domain or fragment)” the value was 149 nM.

A further assay has the same target. As to the kind of experiment: AlphaScreen or HTRF. The source holds these as a separate data set.
As for B1, the IC50 amounted to 622 nM.
